Values quoted from earlier work, collected in PMC3931982.

Target: RXR LBD (Homo sapiens) (UniProt P19793)

RXR LBD (from UniProt P19793)
Kd: 4 nM
